Laboratory results from doi:10.1101/2023.12.08.570772 (bioRxiv, 2023).

T1: Full length MAGEA4 M161D (human, UniProt P43358 1-317, M161D)
T1 sequence: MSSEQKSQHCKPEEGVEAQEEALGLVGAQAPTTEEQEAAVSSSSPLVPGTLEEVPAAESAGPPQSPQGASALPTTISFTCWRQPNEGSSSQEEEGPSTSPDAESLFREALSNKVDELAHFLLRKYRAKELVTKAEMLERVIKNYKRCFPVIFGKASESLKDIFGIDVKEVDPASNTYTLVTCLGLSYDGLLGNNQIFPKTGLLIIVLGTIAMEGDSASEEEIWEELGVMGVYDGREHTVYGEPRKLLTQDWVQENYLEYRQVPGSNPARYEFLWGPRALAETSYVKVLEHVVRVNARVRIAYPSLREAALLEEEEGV

B1: Full length MAGEA4 WT (N-terminal histidine tag) (natural protein)
chain: MSSEQKSQHCKPEEGVEAQEEALGLVGAQAPTTEEQEAAVSSSSPLVPGTLEEVPAAESAGPPQSPQGASALPTTISFTCWRQPNEGSSSQEEEGPSTSPDAESLFREALSNKVDELAHFLLRKYRAKELVTKAEMLERVIKNYKRCFPVIFGKASESLKMIFGIDVKEVDPASNTYTLVTCLGLSYDGLLGNNQIFPKTGLLIIVLGTIAMEGDSASEEEIWEELGVMGVYDGREHTVYGEPRKLLTQDWVQENYLEYRQVPGSNPARYEFLWGPRALAETSYVKVLEHVVRVNARVRIAYPSLREAALLEEEEGV

Columns and labels:
[1] = biological target: His-tagged full length (FL) wildtype (WT) RAD18 (human, UniProt Q9NS91 1-495); assay: cross-linking
Sequence of His-tagged full length (FL) wildtype (WT) RAD18 (Q9NS91 whole entry): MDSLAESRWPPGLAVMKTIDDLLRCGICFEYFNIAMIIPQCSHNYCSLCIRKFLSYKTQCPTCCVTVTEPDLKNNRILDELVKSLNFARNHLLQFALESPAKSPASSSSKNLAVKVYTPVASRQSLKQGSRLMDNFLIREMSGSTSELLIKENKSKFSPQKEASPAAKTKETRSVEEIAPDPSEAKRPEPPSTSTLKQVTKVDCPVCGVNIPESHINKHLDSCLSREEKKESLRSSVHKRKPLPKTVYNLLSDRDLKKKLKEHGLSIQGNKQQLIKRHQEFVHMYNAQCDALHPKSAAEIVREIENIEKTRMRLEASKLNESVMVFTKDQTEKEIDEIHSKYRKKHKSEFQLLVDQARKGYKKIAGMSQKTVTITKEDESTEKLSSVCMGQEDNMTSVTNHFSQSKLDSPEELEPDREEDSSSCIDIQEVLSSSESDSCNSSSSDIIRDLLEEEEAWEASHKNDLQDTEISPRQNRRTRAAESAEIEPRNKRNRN

[2] = biological target: B1; assay: ITC
Full length MAGEA4 M161D = biological target: T1, Full length MAGEA4 M161D; assay: ITC

Binder | binding result [1] | Kd [2] [µM] | Kd (Full length MAGEA4 M161D) [µM]
B1 | binds |  | 
SKYRKKHKSEFQLLVDQARKGYKKIAG [RAD18 R6BD peptide (27 amino acid peptide containing amino acids 340-366 of RAD18)] |  | 0.405 | 1.66
